Test results from US20200261595A1 (Novo Nordisk, published 2020).
Where a chain is given by its changes, count along the chain named. Names and notes keep the numbering of the source.

B1: A14E, A21G, A22(GQEP)12, A70K^, A71P, B25H, B29R, desB30 human insulin/(227A, 234A, 235K hIgG4-Fc(228-447)) … (other)
chain 1: GIVEQCCTSICSLEQLENYCGGQEPGQEPGQEPGQEPGQEPGQEPGQEPGQEPGQEPGQEPGQEPGQEPKP
chain 2: FVNQHLCGSHLVEALYLVCGERGFHYTPR
chain 3: ASCPAPEAKGGPSVFLFPPKPKDTLMISRTPEVTCVVVDVSQEDPEVQFNWYVDGVEVHNAKTKPREEQFNSTYRVVSVLTVLHQDWLNGKEYKCKVSNKGLPSSIEKTISKAKGQPREPQVYTLPPSQEEMTKNQVSLTCLVKGFYPSDIAVEWESNGQPENNYKTTPPVLDSDGSFFLYSRLTVDKSRWQEGNVFSCSVMHEALHNHYTQKSLSLSLGK
modifications: Cys229 (EU numbering) sulphur bound to an acetyl arm of the linker; A70K N(eps) acylated by the trivalent linker 4-[bis[2-[(2-acetyl)amino]ethyl]amino]-4-oxo-butanoyl
notes: also called Ex 5.8
B2: (A14E, A21G, A22(GQAP)18, A94G, A95Q, A96A, A97K^, A98P, B16E, B25H, B29R, desB30 human insulin)/(227A, 234A, 235K, 297E, 315Q, 384Q, des447 hIgG4-Fc(228-447)) … (other)
chain 1: GIVEQCCTSICSLEQLENYCGGQAPGQAPGQAPGQAPGQAPGQAPGQAPGQAPGQAPGQAPGQAPGQAPGQAPGQAPGQAPGQAPGQAPGQAPGQAKP
chain 2: FVNQHLCGSHLVEALELVCGERGFHYTPR
chain 3: ASCPAPEAKGGPSVFLFPPKPKDTLMISRTPEVTCVVVDVSQEDPEVQFNWYVDGVEVHNAKTKPREEQFESTYRVVSVLTVLHQDWLQGKEYKCKVSNKGLPSSIEKTISKAKGQPREPQVYTLPPSQEEMTKNQVSLTCLVKGFYPSDIAVEWESQGQPENNYKTTPPVLDSDGSFFLYSRLTVDKSRWQEGNVFSCSVMHEALHNHYTQKSLSLSLG
modifications: Cys229 (EU numbering) sulphur bound to an acetyl arm of the linker; A97K N(eps) acylated by the trivalent linker 4-[bis[2-[(2-acetyl)amino]ethyl]amino]-4-oxo-butanoyl
B3: (A14A, A21G, A22(GQAP)18, A94G, A95Q, A96A, A97K^, A98P, B29R, desB30 human insulin)/(227A, 234A, 235K, 297E, 315Q, 384Q, des447 hIgG4-Fc(228-447)) … (other)
chain 1: B2 chain 1 with E14A
chain 2: FVNQHLCGSHLVEALYLVCGERGFFYTPR
chain 3: B2 chain 3
modifications: Cys229 (EU numbering) sulphur bound to an acetyl arm of the linker; A97K N(eps) acylated by the trivalent linker 4-[bis[2-[(2-acetyl)amino]ethyl]amino]-4-oxo-butanoyl
notes: also called Ex 5.25
B4: (A14E, A21G, A22(GQAP)24, A118G, A119Q, A120A, A121K^, A122P, B25H, B29R, desB30 human insulin)/(227A, 234A, 235K, 297E, 315Q, 384Q, des447 hIgG4-Fc(228-447)) … (other)
chain 1: GIVEQCCTSICSLEQLENYCGGQAPGQAPGQAPGQAPGQAPGQAPGQAPGQAPGQAPGQAPGQAPGQAPGQAPGQAPGQAPGQAPGQAPGQAPGQAPGQAPGQAPGQAPGQAPGQAPGQAKP
chain 2: FVNQHLCGSHLVEALYLVCGERGFHYTPR
chain 3: B2 chain 3
modifications: Cys229 (EU numbering) sulphur bound to an acetyl arm of the linker; A121K N(eps) acylated by the trivalent linker 3,5-bis[(2-acetyl)amino]benzoyl
notes: also called Ex 5.22
B5: (A14E, A21G, A22(GQAP)24, A118G, A119Q, A120A, A121K^, A122P, B25H, B29R, desB30 human insulin)/(227A, 234A, 235K, 297E, 315Q, 384Q, des447 hIgG4-Fc(228-447)) … (other)
chain 1: B4 chain 1
chain 2: FVNQHLCGSHLVEALYLVCGERGFHYTPR
chain 3: B2 chain 3
modifications: Cys229 (EU numbering) sulphur bound to an acetyl arm of the linker; A121K N(eps) acylated by the trivalent linker 4-[bis[2-[(2-acetyl)amino]ethyl]amino]-4-oxo-butanoyl
notes: also called Ex 5.23
B6: A14E, A21G, A22(GQEP)6, A46K^, A47P, B25H, B29R, desB30 human insulin/(227A, 234A, 235K, 297E, 315Q, 384Q, des447 hIgG4-Fc(228-447)) … (other)
chain 1: GIVEQCCTSICSLEQLENYCGGQEPGQEPGQEPGQEPGQEPGQEPKP
chain 2: FVNQHLCGSHLVEALYLVCGERGFHYTPR
chain 3: B2 chain 3
modifications: Cys229 (EU numbering) sulphur bound to an acetyl arm of the linker; A46K N(eps) acylated by the trivalent linker 4-[bis[2-[(2-acetyl)amino]ethyl]amino]-4-oxo-butanoyl
notes: also called Ex 5.32
B7: (A14E, A21G, A22(GQAP)24, A118G, A119Q, A120A, A121K^, A122P, B29R, desB30 human insulin)/(227A, 234A, 235K, 297E, 315Q, 384Q, des447 hIgG4-Fc(228-447)) … (other)
chain 1: B4 chain 1
chain 2: FVNQHLCGSHLVEALYLVCGERGFFYTPR
chain 3: B2 chain 3
modifications: Cys229 (EU numbering) sulphur bound to an acetyl arm of the linker; A121K N(eps) acylated by the trivalent linker 3,5-bis[(2-acetyl)amino]benzoyl
notes: also called Ex 5.29
B8: A14E, A21G, A22(GQAPGQAPGQEP)6-GQAP, A98K^, A99P, B3Q, B25H, B29R, desB30 human insulin/(227A, 234A, 235K hIgG4-Fc(228-447)) … (other)
chain 1: GIVEQCCTSICSLEQLENYCGGQAPGQAPGQEPGQAPGQAPGQEPGQAPGQAPGQEPGQAPGQAPGQEPGQAPGQAPGQEPGQAPGQAPGQEPGQAPKP
chain 2: FVQQHLCGSHLVEALYLVCGERGFHYTPR
chain 3: B1 chain 3
modifications: Cys229 (EU numbering) sulphur bound to an acetyl arm of the linker; A98K N(eps) acylated by the trivalent linker 4-[bis[2-[(2-acetyl)amino]ethyl]amino]-4-oxo-butanoyl
notes: also called Ex 5.5
B9: A14E, A21G, A22(GQEP)6, A46K^, A47P, B25H, B29R, desB30 human insulin/(227A, 234A, 235K hIgG4-Fc(228-447)) … (other)
chain 1: B6 chain 1
chain 2: FVNQHLCGSHLVEALYLVCGERGFHYTPR
chain 3: B1 chain 3
modifications: Cys229 (EU numbering) sulphur bound to an acetyl arm of the linker; A46K N(eps) acylated by the trivalent linker 4-[bis[2-[(2-acetyl)amino]ethyl]amino]-4-oxo-butanoyl
notes: also called Ex 5.7
B10: (A14E, A21G, A22(GQEP)19, A98K^, A99P, B25H, B29R, desB30 human insulin)/(227A, 234A, 235K hIgG4-Fc(228-447)) … (other)
chain 1: GIVEQCCTSICSLEQLENYCGGQEPGQEPGQEPGQEPGQEPGQEPGQEPGQEPGQEPGQEPGQEPGQEPGQEPGQEPGQEPGQEPGQEPGQEPGQEPKP
chain 2: FVNQHLCGSHLVEALYLVCGERGFHYTPR
chain 3: B1 chain 3
modifications: Cys229 (EU numbering) sulphur bound to an acetyl arm of the linker; A98K N(eps) acylated by the trivalent linker 4-[bis[2-[(2-acetyl)amino]ethyl]amino]-4-oxo-butanoyl
notes: Fc made in E. coli; also called Ex 5.1

target: T1, insulin receptor A (UniProt P06213-2 28-1370, limits assumed); assay: summary of Table 3; upper end tied by Table 3 to the compound of Example 5.8 (10.58)
T1 sequence (P06213 other isoform, or with tags, fused parts or gaps limits assumed): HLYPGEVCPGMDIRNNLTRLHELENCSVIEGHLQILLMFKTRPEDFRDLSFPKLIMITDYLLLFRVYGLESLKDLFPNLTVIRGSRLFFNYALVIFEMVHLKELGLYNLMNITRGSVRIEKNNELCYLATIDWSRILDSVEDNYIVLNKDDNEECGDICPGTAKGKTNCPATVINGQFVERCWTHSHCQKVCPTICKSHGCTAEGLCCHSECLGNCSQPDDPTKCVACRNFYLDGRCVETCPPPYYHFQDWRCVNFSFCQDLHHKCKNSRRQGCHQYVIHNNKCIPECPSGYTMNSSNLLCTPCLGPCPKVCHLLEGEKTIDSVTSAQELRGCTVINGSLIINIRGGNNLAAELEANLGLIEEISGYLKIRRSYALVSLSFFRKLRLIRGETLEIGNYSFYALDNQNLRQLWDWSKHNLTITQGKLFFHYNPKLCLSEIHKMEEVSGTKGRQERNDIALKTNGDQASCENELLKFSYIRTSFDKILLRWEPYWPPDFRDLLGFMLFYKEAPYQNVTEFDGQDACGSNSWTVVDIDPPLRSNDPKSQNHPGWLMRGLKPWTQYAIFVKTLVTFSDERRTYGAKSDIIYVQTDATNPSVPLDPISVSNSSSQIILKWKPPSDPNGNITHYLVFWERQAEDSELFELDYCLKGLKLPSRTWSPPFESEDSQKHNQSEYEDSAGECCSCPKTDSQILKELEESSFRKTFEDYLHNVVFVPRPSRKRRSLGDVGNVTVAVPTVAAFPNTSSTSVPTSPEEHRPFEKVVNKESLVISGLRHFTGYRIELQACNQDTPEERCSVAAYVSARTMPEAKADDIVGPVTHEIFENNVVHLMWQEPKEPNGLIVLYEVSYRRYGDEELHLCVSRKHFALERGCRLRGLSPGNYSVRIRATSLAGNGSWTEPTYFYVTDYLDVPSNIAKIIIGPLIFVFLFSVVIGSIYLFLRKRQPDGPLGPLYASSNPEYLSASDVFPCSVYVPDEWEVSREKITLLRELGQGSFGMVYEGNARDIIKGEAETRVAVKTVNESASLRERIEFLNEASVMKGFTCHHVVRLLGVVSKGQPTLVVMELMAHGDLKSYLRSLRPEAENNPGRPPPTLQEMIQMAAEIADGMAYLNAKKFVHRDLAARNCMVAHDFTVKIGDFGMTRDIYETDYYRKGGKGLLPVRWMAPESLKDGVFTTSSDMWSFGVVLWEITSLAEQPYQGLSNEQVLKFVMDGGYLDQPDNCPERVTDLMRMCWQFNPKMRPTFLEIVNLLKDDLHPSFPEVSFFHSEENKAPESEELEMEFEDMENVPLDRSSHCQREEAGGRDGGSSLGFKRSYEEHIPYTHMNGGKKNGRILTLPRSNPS

For B1, the “insulin receptor affinity relative to human insulin” value was 0.5 to 10%.

target: T1, insulin receptor A; assay: summary of Table 3; lower end tied by Table 3 to the compound of Example 5.31 (0.47)

B2 was tested, and the “insulin receptor affinity relative to human insulin” value was 0.5 to 10%.

target: insulin receptor of isolated rat adipocytes (rat, UniProt P15127 27-1383); assay: cell-based or functional assay
Sequence (P15127 27-1383): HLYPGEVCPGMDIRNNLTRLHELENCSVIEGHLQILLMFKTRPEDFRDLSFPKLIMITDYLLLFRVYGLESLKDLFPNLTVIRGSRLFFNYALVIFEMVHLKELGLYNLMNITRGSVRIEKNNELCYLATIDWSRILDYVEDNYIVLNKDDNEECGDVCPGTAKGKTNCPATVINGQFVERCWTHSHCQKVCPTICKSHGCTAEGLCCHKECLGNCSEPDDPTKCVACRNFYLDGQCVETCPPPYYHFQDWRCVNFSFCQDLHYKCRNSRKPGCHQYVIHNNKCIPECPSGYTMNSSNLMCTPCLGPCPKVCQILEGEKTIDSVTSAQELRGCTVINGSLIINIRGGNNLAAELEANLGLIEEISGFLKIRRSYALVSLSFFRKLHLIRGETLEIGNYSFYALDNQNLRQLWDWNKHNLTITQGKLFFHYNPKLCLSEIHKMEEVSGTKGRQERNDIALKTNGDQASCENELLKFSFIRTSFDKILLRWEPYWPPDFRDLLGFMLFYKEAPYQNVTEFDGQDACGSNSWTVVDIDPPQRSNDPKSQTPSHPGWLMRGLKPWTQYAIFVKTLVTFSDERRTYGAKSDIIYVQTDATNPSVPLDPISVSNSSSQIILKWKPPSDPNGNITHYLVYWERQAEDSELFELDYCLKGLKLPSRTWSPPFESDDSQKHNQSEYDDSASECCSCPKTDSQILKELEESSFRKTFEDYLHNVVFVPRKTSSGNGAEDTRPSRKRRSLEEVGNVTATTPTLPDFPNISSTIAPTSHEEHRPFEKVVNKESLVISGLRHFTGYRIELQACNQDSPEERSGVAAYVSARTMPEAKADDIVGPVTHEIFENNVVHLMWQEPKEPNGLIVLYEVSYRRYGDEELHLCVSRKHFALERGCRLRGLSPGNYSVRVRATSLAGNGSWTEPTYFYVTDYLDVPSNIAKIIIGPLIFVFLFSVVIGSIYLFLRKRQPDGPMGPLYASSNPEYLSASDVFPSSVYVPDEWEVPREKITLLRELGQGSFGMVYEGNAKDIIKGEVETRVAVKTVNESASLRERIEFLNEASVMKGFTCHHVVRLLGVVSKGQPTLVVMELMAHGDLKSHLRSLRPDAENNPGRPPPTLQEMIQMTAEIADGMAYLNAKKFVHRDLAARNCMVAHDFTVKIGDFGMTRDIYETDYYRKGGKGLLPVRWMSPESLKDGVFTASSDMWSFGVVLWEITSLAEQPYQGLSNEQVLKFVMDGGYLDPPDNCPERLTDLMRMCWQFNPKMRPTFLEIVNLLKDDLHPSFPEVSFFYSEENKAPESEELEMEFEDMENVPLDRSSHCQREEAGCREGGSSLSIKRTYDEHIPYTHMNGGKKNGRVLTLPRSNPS

Going from B3 to B4, the “Lipogenesis in rat adipocytes [Potency (%)] Mean Value” rises from 2.08 % of human insulin to 4.64 % of human insulin.

Compared with B5, B6 is lower in “Lipogenesis in rat adipocytes [Potency (%)] Mean Value”: 5.36 % of human insulin for the first, 3.72 % of human insulin for the second.

Going from B7 to B2, the “Lipogenesis in rat adipocytes [Potency (%)] Mean Value” falls from 2.64 % of human insulin to 0.6 % of human insulin.

First: B1
Second: B8
The “Lipogenesis in rat adipocytes [Potency (%)] Mean Value” of the first is higher: 5.31 % of human insulin for the first, 2.21 % of human insulin for the second.

Going from B9 to B10, the “Lipogenesis in rat adipocytes [Potency (%)] Mean Value” rises from 1.88 % of human insulin to 6.69 % of human insulin.

target: T1, insulin receptor A; assay: insulin receptor binding assay as in Vienberg et al. 2011; relative to human insulin on insulin receptor A (100%)

Going from B3 to B4, the “Insulin receptor affinity [IC50 relative to HI (%)]” value falls from 4.49% to 3.56%.

Compared with B5, B6 is lower in “Insulin receptor affinity [IC50 relative to HI (%)]” value: 4.7% for the first, 2.16% for the second.

Going from B7 to B2, the “Insulin receptor affinity [IC50 relative to HI (%)]” value falls from 3.06% to 0.47%.

First: B1
Second: B8
The “Insulin receptor affinity [IC50 relative to HI (%)]” value of the first is higher: 10.6% for the first, 3.34% for the second.

Compared with B9, B10 is higher in “Insulin receptor affinity [IC50 relative to HI (%)]” value: 2.43% for the first, 5.07% for the second.
